Reference: publication PMC2752026 (The EMBO Journal, 2009)

Target: the molecule itself
Test: crystal structure

B1: major vault protein MVP, as in intact vault particles purified from rat liver (natural protein, rat (endogenous in rat liver), UniProt Q62667 1-861, looked up)
chain: MATEEAIIRIPPYHYIHVLDQNSNVSRVEVGPKTYIRQDNERVLFAPVRMVTVPPRHYCIVANPVSRDTQSSVLFDITGQVRLRHADQEIRLAQDPFPLYPGEVLEKDITPLQVVLPNTALHLKALLDFEDKNGDKVMAGDEWLFEGPGTYIPQKEVEVVEIIQATVIKQNQALRLRARKECFDREGKGRVTGEEWLVRSVGAYLPAVFEEVLDLVDAVILTEKTALHLRALQNFRDLRGVLHRTGEEWLVTVQDTEAHVPDVYEEVLGVVPITTLGPRHYCVILDPMGPDGKNQLGQKRVVKGEKSFFLQPGERLERGIQDVYVLSEQQGLLLKALQPLEEGESEEKVSHQAGDCWLIRGPLEYVPSAKVEVVEERQAIPLDQNEGIYVQDVKTGKVRAVIGSTYMLTQDEVLWEKELPSGVEELLNLGHDPLADRGQKGTAKPLQPSAPRNKTRVVSYRVPHNAAVQVYDYRAKRARVVFGPELVTLDPEEQFTVLSLSAGRPKRPHARRALCLLLGPDFFTDVITIETADHARLQLQLAYNWHFELKNRNDPAEAAKLFSVPDFVGDACKAIASRVRGAVASVTFDDFHKNSARIIRMAVFGFEMSEDTGPDGTLLPKARDQAVFPQNGLVVSSVDVQSVEPVDQRTRDALQRSVQLAIEITTNSQEAAAKHEAQRLEQEARGRLERQKILDQSEAEKARKELLELEAMSMAVESTGNAKAEAESRAEAARIEGEGSVLQAKLKAQALAIETEAELERVKKVREMELIYARAQLELEVSKAQQLANVEAKKFKEMTEALGPGTIRDLAVAGPEMQVKLLQSLGLKSTLITDGSSPINLFSTAFGLLGLGSDGQPPAQK
- stoichiometry N: 78
